{
  "source": "the supplement of paper PMC9112550",
  "about": "“Optimization of the antimicrobial peptide Bac7 by deep mutational scanning” (BMC Biology, 2022);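 further: peptides expressed intracellularly from a pBAD plasmid library in pooled LB shake-flask culture, induced with 0.3% L-arabinose, DNA abundance read by NGS, three biological replicates, DESeq2 with apeglm shrinkage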",
  "data": [
    {"system": "Escherichia coli TOP10", "experiment": "shrunken log2 fold change of peptide-encoding DNA abundance (4.5 h post-induction vs induction); higher = less antimicrobial activity (less host growth inhibition)", "conditions": "time post-induction: 4.5 h; library: site-saturation at positions 5, 18, 19, 20", "values": [
      {"sequence": "RRIRIRPPRLPRPRPRPNWRPRP", "shrunken log2 fold change": 0.0227},
      {"sequence": "RRIRQRPPRLPRPRPRPKATPRP", "shrunken log2 fold change": 0.18},
      {"sequence": "RRIRKRPPRLPRPRPRPLSTPRP", "shrunken log2 fold change": 0.025},
      {"sequence": "RRIRQRPPRLPRPRPRPHCVPRP", "shrunken log2 fold change": -0.0218},
      {"sequence": "RRIRRRPPRLPRPRPRPMHIPRP", "shrunken log2 fold change": 0.238},
      {"sequence": "RRIRIRPPRLPRPRPRPVHYPRP", "shrunken log2 fold change": -0.497},
      {"sequence": "RRIRGRPPRLPRPRPRPWWWPRP", "shrunken log2 fold change": 0.152},
      {"sequence": "RRIRARPPRLPRPRPRPLEMPRP", "shrunken log2 fold change": 0.75},
      {"sequence": "RRIRERPPRLPRPRPRPFLMPRP", "shrunken log2 fold change": -0.209},
      {"sequence": "RRIRSRPPRLPRPRPRPMWHPRP", "shrunken log2 fold change": -0.332},
      {"sequence": "RRIRCRPPRLPRPRPRPPRKPRP", "shrunken log2 fold change": 1.01},
      {"sequence": "RRIRTRPPRLPRPRPRPDQAPRP", "shrunken log2 fold change": -0.0986},
      {"sequence": "RRIRYRPPRLPRPRPRPMRKPRP", "shrunken log2 fold change": -0.00197},
      {"sequence": "RRIRNRPPRLPRPRPRPPQRPRP", "shrunken log2 fold change": 0.457},
      {"sequence": "RRIRCRPPRLPRPRPRPKPMPRP", "shrunken log2 fold change": -0.00253},
      {"sequence": "RRIRPRPPRLPRPRPRPLQMPRP", "shrunken log2 fold change": 0.205},
      {"sequence": "RRIRVRPPRLPRPRPRPFFLPRP", "shrunken log2 fold change": -0.294},
      {"sequence": "RRIRIRPPRLPRPRPRPHCDPRP", "shrunken log2 fold change": -0.0356},
      {"sequence": "RRIRMRPPRLPRPRPRPLCSPRP", "shrunken log2 fold change": -0.0295},
      {"sequence": "RRIRPRPPRLPRPRPRPAMKPRP", "shrunken log2 fold change": 0.162},
      {"sequence": "RRIRFRPPRLPRPRPRPEIHPRP", "shrunken log2 fold change": -0.227},
      {"sequence": "RRIRWRPPRLPRPRPRPPDPPRP", "shrunken log2 fold change": 0.296},
      {"sequence": "RRIRKRPPRLPRPRPRPQEPPRP", "shrunken log2 fold change": 0.01},
      {"sequence": "RRIRYRPPRLPRPRPRPCPMPRP", "shrunken log2 fold change": -0.476},
      {"sequence": "RRIRRRPPRLPRPRPRPKFLPRP", "shrunken log2 fold change": 0.133},
      {"sequence": "RRIRTRPPRLPRPRPRPMSIPRP", "shrunken log2 fold change": -0.143},
      {"sequence": "RRIRPRPPRLPRPRPRPANWPRP", "shrunken log2 fold change": 0.22},
      {"sequence": "RRIRPRPPRLPRPRPRPCDAPRP", "shrunken log2 fold change": 0.375},
      {"sequence": "RRIRARPPRLPRPRPRPPCNPRP", "shrunken log2 fold change": 0.0888},
      {"sequence": "RRIRHRPPRLPRPRPRPSQWPRP", "shrunken log2 fold change": -0.451},
      {"sequence": "RRIRYRPPRLPRPRPRPLCGPRP", "shrunken log2 fold change": -0.557},
      {"sequence": "RRIRPRPPRLPRPRPRPMTVPRP", "shrunken log2 fold change": -0.038},
      {"sequence": "RRIRRRPPRLPRPRPRPRAAPRP", "shrunken log2 fold change": 0.833},
      {"sequence": "RRIRVRPPRLPRPRPRPPQQPRP", "shrunken log2 fold change": 0.575},
      {"sequence": "RRIRLRPPRLPRPRPRPKVMPRP", "shrunken log2 fold change": -0.044},
      {"sequence": "RRIRCRPPRLPRPRPRPSIQPRP", "shrunken log2 fold change": -0.655},
      {"sequence": "RRIRYRPPRLPRPRPRPWQNPRP", "shrunken log2 fold change": -0.103},
      {"sequence": "RRIRNRPPRLPRPRPRPQRSPRP", "shrunken log2 fold change": 0.0667},
      {"sequence": "RRIRCRPPRLPRPRPRPNPAPRP", "shrunken log2 fold change": 0.101},
      {"sequence": "RRIRARPPRLPRPRPRPCVDPRP", "shrunken log2 fold change": 0.581},
      {"sequence": "RRIRCRPPRLPRPRPRPWFFPRP", "shrunken log2 fold change": -0.24},
      {"sequence": "RRIRHRPPRLPRPRPRPADTPRP", "shrunken log2 fold change": -0.406},
      {"sequence": "RRIRYRPPRLPRPRPRPIYWPRP", "shrunken log2 fold change": -0.204},
      {"sequence": "RRIRQRPPRLPRPRPRPWHWPRP", "shrunken log2 fold change": 0.107},
      {"sequence": "RRIRKRPPRLPRPRPRPMRAPRP", "shrunken log2 fold change": 1.23},
      {"sequence": "RRIRARPPRLPRPRPRPRQPPRP", "shrunken log2 fold change": 0.75},
      {"sequence": "RRIRQRPPRLPRPRPRPVMRPRP", "shrunken log2 fold change": 0.444},
      {"sequence": "RRIRWRPPRLPRPRPRPVHCPRP", "shrunken log2 fold change": -0.162},
      {"sequence": "RRIRERPPRLPRPRPRPYTSPRP", "shrunken log2 fold change": -0.141},
      {"sequence": "RRIRARPPRLPRPRPRPWTSPRP", "shrunken log2 fold change": -0.064},
      {"sequence": "RRIRTRPPRLPRPRPRPRKHPRP", "shrunken log2 fold change": -0.166},
      {"sequence": "RRIRERPPRLPRPRPRPTFNPRP", "shrunken log2 fold change": -0.24},
      {"sequence": "RRIRWRPPRLPRPRPRPSTDPRP", "shrunken log2 fold change": 0.0398},
      {"sequence": "RRIRPRPPRLPRPRPRPNCEPRP", "shrunken log2 fold change": 0.117},
      {"sequence": "RRIRCRPPRLPRPRPRPEVKPRP", "shrunken log2 fold change": 0.149},
      {"sequence": "RRIRGRPPRLPRPRPRPMGIPRP", "shrunken log2 fold change": 0.0179},
      {"sequence": "RRIRIRPPRLPRPRPRPPSWPRP", "shrunken log2 fold change": 0.0866},
      {"sequence": "RRIRHRPPRLPRPRPRPEKLPRP", "shrunken log2 fold change": 0.0208},
      {"sequence": "RRIRERPPRLPRPRPRPRLRPRP", "shrunken log2 fold change": 0.25},
      {"sequence": "RRIRGRPPRLPRPRPRPQYHPRP", "shrunken log2 fold change": -0.141}
    ]}
  ]
}
